# Publication PMC5298014, “Site‐Specific Immobilization of the Peptidoglycan Synthase PBP1B on a Surface Plasmon Resonance Chip Surface” (Chembiochem, 2016)
# “And” between values parts separate entries of the source, which are not always exact repeats. Identical values can stand only once.
# B1: PBP1B Gly55AzF (N-terminal His6-tagged PBP1Bγ with p-azidophenylalanine in place of Gly55) (enzyme)
# chain: MPRKGKGKGKFRKPRGKRGWLWLLLKLAIVFAVLIAIYGVYLDQKIRSRIDGKVWQLPAAVYGRMVNLEPDMTISKNEMVKLLEATQYRQVSKMTRPGEFTVQANSIEMIRRPFDFPDSKEGQVRARLTFDGDHLATIVNMENNRQFGFFRLDPRLITMISSPNGEQRLFVPRSGFPDLLVDTLLATEDRHFYEHDGISLYSIGRAVLANLTAGRTVQGASTLTQQLVKNLFLSSERSYWRKANEAYMALIMDARYSKDRILELYMNEVYLGQSGDNEIRGFPLASLYYFGRPVEELSLDQQALLVGMVKGASIYNPWRNPKLALERRNLVLRLLQQQQIIDQELYDMLSARPLGVQPRGGVISPQPAFMQLVRQELQAKLGDKVKDLSGVKIFTTFDSVAQDAAEKAAVEGIPALKKQRKLSDLETAIVVVDRFSGEVRAMVGGSEPQFAGYNRAMQARRSIGSLAKPATYLTALSQPKIYRLNTWIADAPIALRQPNGQVWSPQNDDRRYSESGRVMLVDALTRSMNVPTVNLGMALGLPAVTETWIKLGVPKDQLHPVPAMLLGALNLTPIEVAQAFQTIASGGNRAPLSALRSVIAEDGKVLYQSFPQAERAVPAQAAYLTLWTMQQVVQRGTGRQLGAKYPNLHLAGKTGTTNNNVDTWFAGIDGSTVTITWVGRDNNQPTKLYGASGAMSIYQRYLANQTPTPLNLVPPEDIADMGVDYDGNFVCSGGMRILPVWTSDPQSLCQQSEMQQQPSGNPFDQSSQPQQQPQQQPAQQEQKDSDGVAGWIKDMFGSN
# modifications: p-azidophenylalanine in place of Gly55; coupled through this azide to dibenzylcyclooctyne on the chip surface
# Target: T1, LpoB(sol) (signal sequence and lipid anchor of LpoB replaced by an oligohistidine tag)
# T1 construct: also called His-LpoB(sol); source: E. coli BL21(DE3) with pET28LpoB, purified (HisTrap, thrombin, HiTrap Q flow-through, Superdex 200)
# Test: SPR; IBIS-MX96; PBP1B Gly55AzF immobilised through its azide on a SensEye P-NH2 sensor coated with sulfo-dibenzylcyclooctyne-NHS ester, blocked with azidoethanol; LpoB injected at different concentrations; running buffer 10 mM Tris/maleate pH 7.5, 150 mM NaCl, 0.05 % Triton X-100; KD from maximum RU against concentration, one-site saturation
# Conditions: both partners purified
binder,measurement,value
B1,Kd,710 to 970 nM and 840 nM
